Source: patent publication US10851152B2, “Polymerized peptide and gel having collagen-like structure” (WASEDA UNIVERSITY, priority 2015, dated 2020)
Non-standard residues stand in square brackets, D forms with d. No end group written: not given here. Hyp = O=C(O)[C@@H]1C[C@@H](O)CN1

How the values were obtained:
[1] = tested on: human dermal fibroblasts (HDF); experiment: Cell adhesion assay with multifunctional polymerized gel; assay type: cell-based; conditions: gels with 1% by weight CCC2-GFOGER (short) triple-chain peptide unless ligand free; 37° C., three hours
Experimental: CCC2-GPOGPR (short) (SEQ ID NO. 10), CC2-GPOGPR (short) (SEQ ID NO. 23) or C2-GPOGPR (short) (SEQ ID NO. 24) was respectively dissolved in a degassed ultrapure water, followed by heating it at 80° C. for 5 min, and then stranded at 4° C. overnight to form triple helix. These were mixed at various ratios, and DMSO was then added thereto in a way such that a final concentration became 10%, followed by adding them into a 96-well plate by 50 μL each. At that time, a triple-chain peptide containing CCC2-GFOGER (short) (SEQ ID NO. 11) of a weight ratio 1% was added to all the peptide mixture liquids, and those to which the triple-chain peptide was not added were recited as “Ligand-free.” This plate was then left to stand Mill in a container filled with 10% DMSO for four days or longer to turn the peptide solution into a gel. These gels were able to dilute DMSO by immersion in a cell culture medium overnight, and then used in the following experiments employing cells. Here, type I collagen was used as a positive control.
The human dermal fibroblasts (HDF) were stripped with 0.05% trypsin/EDTA, followed by centrifuged at 800 rpm in a 15 mL tube to collect the cells. […]

[2] = Remaining thiol group (Ellman's reagent) in oxidative polymerization reaction; assay type: physicochemical; conditions: 10% DMSO, peptide 1% (w/v)
Experimental: Degassed water was used to prepare a peptide solution having a concentration of 1.11% (w/v), and the solution was then put into a PCR tube. After heating this solution at 80° C. for 5 min, it was then left to sand still at 4° C. overnight. By adding DMSO to this solution, there was prepared a peptide solution having a final concentration of 10% DMSO, peptide 1% (w/v). The PCR tube was then filled with a mineral oil in a way such that the mineral oil covered the surface of the solution. In every measurement, the mineral oil was eliminated from the peptide solution to prepare a peptide solution for oxidation monitoring. Ellman's reagent was prepared in a way such that 9 mg/ml of DTNB was present in 50 mM of a phosphate buffer solution (pH 8.4). 33 mM phosphate buffer solution (pH 8.4) and Ellman's reagent 1.5 mg/ml were left to stand for […], then a light absorbance was then measured after a solution with a final concentration of peptide 0.167 mg/ml. Recorded were changes in absorbance with time, with a moment when DMSO was added being a starting point (0 hour). Since the Ellman's reagent generates 5-mercapto-2-nitrobenzoate (λ max=412 nm, ε=1.55×10^4) depending on the amount of thiol groups (referred to as “SH groups” hereunder) in the peptide, measured was a absorbance at 412 nm. After the measurement, optical path length was compensated by measuring absorbance at 997 nm and 900 nm.

[3] = CD spectrum measurement of triple-helical structure and its thermal stability; assay type: physicochemical
Experimental: The structure of the peptide was confirmed by CD spectrum (circular dichroism spectrometer J-820, JASCO Corporation). A peptide powder was dissolved in a degassed 0.05% TFA/H2O to prepare a solution of 1 mg/ml. After heating at 80° C. for 5 min, the solution was left to stand at 4° C. overnight to cause refolding as a measurement sample. CD spectrum was measured under the conditions of: temperature 4° C., 37° C., 80° C.; cell length 0.05 cm; sensitivity standard (100 mdeg); measurement wavelength 250 to 190 nm; data collection interval 0.2 nm; scanning speed 50 nm/min; response 0.5 sec; band width 1 nm; cumulated number 4. A signal obtained (θobs) was expressed as a residue average molar ellipticity (θmrw). θmrw was calculated by the following formula.
A thermal stability of the triple-helical structure was observed by monitoring θmrw, 225 associated with a change in temperature. The measurement conditions were: 4 to 75° C. or 4 to 90° C.; cell length 0.05 cm; measurement wavelength 225 nm; data collection interval 0.5° C.; temperature gradient 18° C./h; sensitivity standard (100 mdeg); response 2 sec; band width 1 nm. It was determined that the triple-helical structure completely turned into a random coil structure in a region where the signal was linearly diminishing.

[4] = Hydrogel formation judged by holding of a stainless ball; assay type: physicochemical; design: key to gel formation, Time (hour) 9 / gel formation, Time (hour) 12 / gel formation, Time (hour) 15 / gel formation, Time (hour) 24 / gel formation, Time (hour) 32 / gel formation, Time (hour) 74 / gel formation, Peptide concentration 0.1% (w/v) / gel formation, Peptide concentration 0.2% (w/v) / gel formation, Peptide concentration 0.3% (w/v) / gel formation, Peptide concentration 0.5% (w/v) / gel formation, Peptide concentration 0.7% (w/v) / gel formation, Peptide concentration 1.0% (w/v): ◯: Gelated; X: Failed to gelate; conditions: for gel-forming capability: 10% DMSO, room temperature, up to three days
Experimental: Degassed water was used to prepare a peptide solution having a concentration of 1.11% (w/v) or 1.66% (w/v), and the solution was then put into a PCR tube. After heating this solution at 80° C. for 5 min using a polymerase chain reaction (PCR) machine (TaKaRa PCR Thermal Cycler, TAKARA BIO INC.), the solution was then left to stand at 4° C. overnight. By adding DMSO and water to this solution, there was prepared a peptide solution having a concentration of 10% DMSO, 0.1 to 1.5% (w/v). The PCR tube was then filled with a mineral oil in a way such that the mineral oil covered the liquid surface, followed by allowing the solution to stand at room temperature for a given period of time to achieve a gel. Then, gel formation was determined by looking at whether a stainless ball could be held by the gel.

[5] = Thermal stability of hydrogel (sinking of stainless ball); assay type: physicochemical; conditions: hydrogel of 1% (w/v) peptide; 10 min per temperature
Experimental: After mounting the stainless ball on the hydrogel prepared, they were moved to a thermostatic device, and were left to stand for 10 min at various temperatures between 35° C. and 95° C. Whether gel collapse had occurred was determined by judging the sinking of the stainless ball.

[6] = Hydrogel stability to reduction treatment (DTT) or water with pipetting; assay type: physicochemical; conditions: water added instead of reducing solution; pipetting about 90 times/min
Experimental: There, verification was made on whether gel caused a collapse by breaking the disulfide cross-linking by a reduction treatment. A reducing solution of 100 μl (100 mM DTT, 50 mM phosphate buffer solution (pH 8.4)) or water was added to the hydrogel (30 μl) prepared. […] Then, pipetting procedure was respectively performed at a frequency of about 90 times/min and a volume of 100 μl/each time, using a yellow tip (up to 200 μl).

human fibroblast (HDF) = experiment: Adhesion of human fibroblasts to polymerized peptide with RGD motif linked via linker; assay type: cell-based; conditions: 37° C., about an hour
Experimental: CCC2-KGHRGF (SEQ ID NO. 18) was synthesized by a method similar to that of example 2. After forming triple helix with such CCC2-KGHRGF (SEQ ID NO: 18) at 1.11 mg/ml, DMSO was added to the concentration of 10%, and a mineral oil was then layered thereon, followed by oxidized and polymerized at room temperature for a week. Next, the polymerized peptide employing CCC2-KGHRGF (SEQ ID NO: 18) was diluted to 30 μg/ml, and a 96-well plate was then coated with such polymerized peptide overnight. Then, the solution was removed, followed by adding thereto 1 mg/ml BS (PEG)5 (by Pierce, catalog No. 21581) dissolved in a 5 mg/ml NaHCO3 aqueous solution, and then reacted at room temperature for about an hour to bind the linker. Next, there was added 10 mM ethanolamine (EA) or 100 μg/ml RGD pep (SEQ ID NO. 22) dissolved in a 5 mg/ml NaHCO3 aqueous solution, followed by allowing reaction to link CCC2-KGHRGF (SEQ ID NO: 18) to the linker at room temperature for about an hour.
5 mg/ml BSA was added to a gel linked with the above RGD motif, to perform blocking for about an hour. […] After air drying, microscopic observation was carried out, and there was evaluated a binding ability of HDF to the RGD motif linked to such polymerized peptide via a linker.

Substance: CCC(POG)4FOGERG(POG)4CCC [CCC2-GFOGER (short)]
- adhesion and aggregation of human dermal fibroblasts on gel [1]: each human dermal fibroblast elongated and adhered respectively

Substance: YCCGPPOGGOPOGPPOGGOPOGRPOGPPOGGOPOGCCY (YCCGPP[Hyp]GG[Hyp]P[Hyp]GPP[Hyp]GG[Hyp]P[Hyp]GRP[Hyp]GPP[Hyp]GG[Hyp]P[Hyp]GCCY; not fully specified; cysteine pairing not given here) [YCC2-Scr]
- ratio of SH amount ([2]; SH amount at 0 hour being 100%, 74 hours): approximately 0%
- formation of triple-helical structure (CD spectrum, positive Cotton effect at about 225 nm) ([3]; 1 mg/ml in 0.05% TFA/H2O, measured at 4° C., 37° C. and 80° C.): did not form the triple-helical structure
- gel-forming capability ([4]; 1% (w/v) peptide): did not turn into a gel

Substance: CC(POG)6PRG(POG)5CC (CCPPGPPGPPGPPGPPGPPGPRGPPGPPGPPGPPGPPGCC; not fully specified; hydroxyproline; MOD_RES (4)..(4) 4-Hydroxyproline; MOD_RES (7)..(7) 4-Hydroxyproline; MOD_RES (10)..(10) 4-Hydroxyproline; MOD_RES (13)..(13) 4-Hydroxyproline; MOD_RES (16)..(16) 4-Hydroxyproline; MOD_RES (19)..(19) 4-Hydroxyproline; MOD_RES (25)..(25) 4-Hydroxyproline; MOD_RES (28)..(28) 4-Hydroxyproline; MOD_RES (31)..(31) 4-Hydroxyproline; MOD_RES (34)..(34) 4-Hydroxyproline; MOD_RES (37)..(37) 4-Hydroxyprolin) [CC2]
- time in which peptide turned into a gel [2]: 74 h
- temperature at which the stainless ball completely sank [5]: 95 °C
- thermal denaturation (change in θ225 as temperature changed) ([3]; 225 nm, temperature gradient 18° C./h): about 75 °C
- gel-forming capability ([4]; 1% (w/v) peptide): capable of turning into gels
- gel formation, Time (hour) 9 ([4]; 1% (w/v) peptide, 9 hour): X
- gel formation, Time (hour) 12 ([4]; 1% (w/v) peptide, 12 hour): X
- gel formation, Time (hour) 15 ([4]; 1% (w/v) peptide, 15 hour): X
- gel formation, Time (hour) 24 ([4]; 1% (w/v) peptide, 24 hour): X
- gel formation, Time (hour) 32 ([4]; 1% (w/v) peptide, 32 hour): ◯
- gel formation, Time (hour) 74 ([4]; 1% (w/v) peptide, 74 hour): ◯
- gel formation, Peptide concentration 0.3% (w/v) ([4]; oxidizing conditions: room temperature, three days, 0.3% (w/v)): X
- gel formation, Peptide concentration 0.5% (w/v) ([4]; oxidizing conditions: room temperature, three days, 0.5% (w/v)): X
- gel formation, Peptide concentration 0.7% (w/v) ([4]; oxidizing conditions: room temperature, three days, 0.7% (w/v)): X
- gel formation, Peptide concentration 1.0% (w/v) ([4]; oxidizing conditions: room temperature, three days, 1.0% (w/v)): ◯
- gel collapse on adding water [6]: gel collapse was observed

Substance: GRGDS-NH2 [soluble RGD, soluble peptide having the RGD motif, as a control]
- adhesion of HDF (human fibroblast (HDF)): binding ability of HDF was not exhibited
